T1: human FGFR2IIIb expressed on Ba/F3 cells (human, UniProt P21802 22-821)
T1 chain: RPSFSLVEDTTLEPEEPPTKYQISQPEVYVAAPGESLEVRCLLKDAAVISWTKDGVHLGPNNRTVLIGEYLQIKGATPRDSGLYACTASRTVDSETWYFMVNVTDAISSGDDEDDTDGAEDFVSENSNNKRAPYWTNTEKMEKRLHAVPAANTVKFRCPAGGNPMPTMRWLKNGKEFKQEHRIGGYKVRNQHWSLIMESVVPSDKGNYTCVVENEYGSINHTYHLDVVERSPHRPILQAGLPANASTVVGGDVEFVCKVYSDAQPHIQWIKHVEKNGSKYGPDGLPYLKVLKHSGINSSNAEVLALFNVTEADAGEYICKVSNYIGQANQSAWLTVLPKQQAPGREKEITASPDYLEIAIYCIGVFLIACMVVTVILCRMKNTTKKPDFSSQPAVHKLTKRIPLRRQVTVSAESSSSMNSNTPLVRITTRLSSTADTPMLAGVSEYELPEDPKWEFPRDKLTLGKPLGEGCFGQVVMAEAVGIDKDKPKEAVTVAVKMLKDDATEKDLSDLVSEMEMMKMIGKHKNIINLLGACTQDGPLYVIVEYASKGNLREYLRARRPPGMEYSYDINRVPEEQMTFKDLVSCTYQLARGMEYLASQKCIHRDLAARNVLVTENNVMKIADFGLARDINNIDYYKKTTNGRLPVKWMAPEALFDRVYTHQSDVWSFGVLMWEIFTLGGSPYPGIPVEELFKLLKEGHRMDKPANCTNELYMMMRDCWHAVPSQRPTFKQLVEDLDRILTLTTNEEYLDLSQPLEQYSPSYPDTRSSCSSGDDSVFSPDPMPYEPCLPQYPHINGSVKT


Target: T1, human FGFR2IIIb expressed on Ba/F3 cells
Test: cell-based or functional assay

Row | Binder | EC50 (ng/mL) of ADCC, LDH release [ng/mL]
1 | afucosylated monoclonal antibody αFGFR2bA (antibody, human IgG1, kappa, Asn297 glycan lacks fucose (afucosylated; produced in FUT8-lacking Potelligent CHOK1SV cells)) heavy: not shown light: DIQMTQSPSSLSASVGDRVTITCKASQGVSNDVAWYQQKPGKAPKLLIYSASYRYTGVPSRFSGSGSGTDFTFTISSLQPEDIATYYCQQHSTTPYTFGQGTKLEIKRTVAAPSVFIFPPSDEQLKSGTASVVCLLNNFYPREAKVQWKVDNALQSGNSQESVTEQDSKDSTYSLSSTLTLSKADYEKHKVYACEVTHQGLSSPVTKSFNRGEC | 2
2 | fucosylated monoclonal antibody αFGFR2bF (antibody, human IgG1, kappa, Asn297 glycan contains fucose (fucosylated)) heavy: not shown light: DIQMTQSPSSLSASVGDRVTITCKASQGVSNDVAWYQQKPGKAPKLLIYSASYRYTGVPSRFSGSGSGTDFTFTISSLQPEDIATYYCQQHSTTPYTFGQGTKLEIKRTVAAPSVFIFPPSDEQLKSGTASVVCLLNNFYPREAKVQWKVDNALQSGNSQESVTEQDSKDSTYSLSSTLTLSKADYEKHKVYACEVTHQGLSSPVTKSFNRGEC | 16

From patent publication US20190175730A1 (Five Prime, published 2019)
